The target of this series is alpha-thrombin (UniProt P00734;P00734 P00734:328-363,P00734:364-622). Kind of series: fluorescence dequenching at 277 nM TAL2, protein ratios 1:1 to 100:1; t1/2 about 30 min at 10-fold excess; 10 mM KCl, 5 mM MgCl2, 12.5 mM Tris acetate pH 6.5.

B1: TAL2 beacon with Dabcyl anchor (structured_DNA)
DNA 1: GGTTGGTTTGGTTGGCAACCTCTGCTACGTG
DNA 2: CACGTAGCAG
modifications: anchor 5' NH2-(CH2)6
As to B1, the binding result is on record as “binds”.

(Values after patent US20100204461 (published 2010).)
